Tests used:
[1] = molecular target: human IL-2Rβγ heterodimeric Fc fusion (human) (UniProt P14784)
[2] = molecular target: cynomolgus IL-2Rβγ heterodimeric Fc fusion (cynomolgus) (UniProt Q38J85); test: SPR; Biacore T200; biotinylated IL2Rβγ-Fc heterodimer immobilised on streptavidin chips; fusion proteins injected 1.2-300 nM for 2 min, dissociation 10 min; regeneration 3 M MgCl2; global 1:1 model, 'apparent' KD (bivalent binding of the dimeric fusions)
[3] = molecular target: human IL-2Rβγ heterodimeric Fc fusion (human) (UniProt P14784); test: as above
[4] = molecular target: cynomolgus IL-2Rα, monomeric, his-tagged (cynomolgus); test: SPR; Biacore T200; monomeric his-tagged IL-2Rα immobilised by amine coupling on CM5 chips; 2-fold dilution series (0.41 nM-300 nM) of the IL-2 fusion protein injected for 90 s, dissociation 3 min; regeneration 10 mM glycine pH 1.5; steady state model
[5] = molecular target: human IL-2Rα, monomeric, his-tagged (human) (UniProt P01589); test: as above
Sequence of UniProt P01589 (P01589 22-272): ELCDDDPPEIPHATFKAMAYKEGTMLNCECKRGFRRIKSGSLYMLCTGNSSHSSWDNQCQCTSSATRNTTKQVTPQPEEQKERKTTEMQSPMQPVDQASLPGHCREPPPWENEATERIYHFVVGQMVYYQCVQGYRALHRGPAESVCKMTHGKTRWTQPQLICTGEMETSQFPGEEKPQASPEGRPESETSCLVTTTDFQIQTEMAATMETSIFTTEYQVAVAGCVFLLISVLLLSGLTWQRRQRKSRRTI

[6] = molecular target: human IL-2Rβγ heterodimeric Fc fusion (human) (UniProt P14784); remark: listed apart in the source

Substance | Kd [2] [nM] | Kd [3] [nM] | Kd [4] [nM] | Kd [5] [nM] | also measured
IgG-(IL-2)2 (wild-type dimer: two human IL-2 fused to a non-targeted, effector-silent human IgG1) (from UniProt P60568 21-153) | – | – | 15 | 5 | –
IgG-(IL-2N88D)2 (two human IL-2 N88D muteins fused to a non-targeted, effector-silent human IgG1) (from UniProt P60568 21-153) | – | – | 30 | 22 | –
IgG-IL-2 (wild-type monomer: one human IL-2 fused to a non-targeted, effector-silent human IgG1) (from UniProt P60568 21-153) | – | – | 30 | 15 | –

Now from value to substance, other results behind:

Kd [2] [nM] | Kd [3] [nM] | Kd [4] [nM] | Kd [5] [nM] | Substance | also measured
0.04 | 0.003 | – | – | IgG-(IL-2)2 (from UniProt P60568 21-153) | EC50 of pSTAT5 induction in memory and naïve Tregs, human whole blood [1]: 0.3 pM
0.57 | 0.24 | – | – | IgG-(IL-2N88D)2 (from UniProt P60568 21-153) | EC50 of pSTAT5 induction in CD4+ effector memory T cells, human whole blood [6]: > 10000 pM; EC50 of pSTAT5 induction in CD4+ naïve Tregs, human whole blood [6]: 18 pM; EC50 of pSTAT5 induction in CD56bright NK cells, human whole blood [6]: > 1000 pM
0.18 | 0.04 | – | – | IgG-IL-2 (from UniProt P60568 21-153) | –
